Results taken from patent US20210054094A1 (Hoffmann-La Roche, published 2021).

molecular target: human GPRC5D (human, UniProt Q9NZD1 1-345); experiment: cell-based or functional assay
Sequence (Q9NZD1 whole entry): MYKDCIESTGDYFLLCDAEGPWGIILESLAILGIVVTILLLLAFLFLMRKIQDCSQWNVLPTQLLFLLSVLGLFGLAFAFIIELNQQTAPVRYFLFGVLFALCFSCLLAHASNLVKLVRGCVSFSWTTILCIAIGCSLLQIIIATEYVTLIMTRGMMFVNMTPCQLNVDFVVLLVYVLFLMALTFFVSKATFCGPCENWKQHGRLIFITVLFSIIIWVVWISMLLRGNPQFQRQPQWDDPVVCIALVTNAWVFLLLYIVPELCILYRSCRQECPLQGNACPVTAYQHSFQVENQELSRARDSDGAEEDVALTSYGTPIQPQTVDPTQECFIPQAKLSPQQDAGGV

CAR-J2 EC50 (PGLALA-CAR-J activation, L363 target cells) [µg/mL]	Binder
0.0235	P1AE5739 (antibody, V domains shown) VH: EVQLVESGGGVVQPGRSLRLSCAASGFSFSNYGMAWVRQAPGKGLEWVASISTGGGNTYYRDSVKGRFTISRDNAKNTLYLQMNSLRAEDTAVYYCTRHDRGGLYWGQGTMVTVSS VL: DIVMTQSPLSLPVTPGEPASISCRSSKSLLHSNGITYVYWYLQKPGQSPQVLIYRMSNLASGVPDRFSGSGSGTDFTLKISRVEAEDVGVYHCGQLLENPYTFGQGTKLEIK
0.509	P1AE5752 (antibody, V domains shown) VH: EVQLVESGGGVVQPGRSLRLSCAASGFSFSNYGMAWVRQAPGKGLEWVASISTGGGNTYYADSVKGRFTISRDNAKNTLYLQMNSLRAEDTAVYYCTRHDRGGLYWGQGTMVTVSS VL: DIVMTQSPLSLPVTPGEPASISCRSSKSLLHSNGITYVYWYLQKPGQSPQLLIYRMSNRASGVPDRFSGSGSGTDFTLKISRVEAEDVGVYHCGQLLENPYTFGQGTKLEIK
0.00138	P1AE5736 (antibody, V domains shown) VH: QVQLVESGGGVVQPGRSLRLSCAASGFSFSNYGMAWVRQAPGKGLEWVASISTGGGNTYYRDSVKGRFTISRDNSKNTLYLQMNSLRAEDTAVYYCTRHDRGGLYWGQGTMVTVSS VL: DIVMTQSPLSLPVTPGEPASISCRSSKSLLHSNGITYVYWYLQKPGQSPQLLIYRMSNRASGVPDRFSGSGSGTDFTLKISRVEAEDVGVYHCGQLLENPYTFGQGTKLEIK
0.514	P1AE5746 (antibody, V domains shown) VH: QVQLVESGGGVVQPGRSLRLSCAASGFSFSNYGMAWVRQAPGKGLEWVASISTGGGNTYYADSVKGRFTISRDNSKNTLYLQMNSLRAEDTAVYYCTRHDRGGLYWGQGTMVTVSS VL: DIVMTQSPLSLPVTPGEPASISCRSSKSLLHSNGITYVYWYLQKPGQSPQLLIYRMSNRASGVPDRFSGSGSGTDFTLKISRVEAEDVGVYHCGQLLENPYTFGQGTKLEIK
0.0821	P1AE5735 (antibody, V domains shown) VH: QVQLVESGGGVVQPGRSLRLSCAASGFSFSNYGMAWVRQAPGKGLEWVASISTGGGNTYYRDSVKGRFTISRDNSKNTLYLQMNSLRAEDTAVYYCTRHDRGGLYWGQGTMVTVSS VL: DIVMTQSPLSLPVTPGEPASISCRSSKSLLHSNGITYVYWYLQKPGKSPQVLIYRMSNLASGVPDRFSGSGSGTDFTLKISRVEAEDVGVYHCGQLLENPYTFGQGTKLEIK
0.00363	P1AE5744 (antibody, V domains shown) VH: QVQLVESGGGVVQPGRSLRLSCAASGFSFSNYGMAWVRQAPGKGLEWVASISTGGGNTYYADSVKGRFTISRDNSKNTLYLQMNSLRAEDTAVYYCTRHDRGGLYWGQGTMVTVSS VL: DIVMTQSPLSLPVTPGEPASISCRSSKSLLHSNGITYVYWYLQKPGQSPQVLIYRMSNLASGVPDRFSGSGSGTDFTLKISRVEAEDVGVYHCGQLLENPYTFGQGTKLEIK
0.0014	P1AE5741 (antibody, V domains shown) VH: EVQLVESGGGVVQPGRSLRLSCAASGFSFSNYGMAWVRQAPGKGLEWVASISTGGGNTYYRDSVKGRFTISRDNAKNTLYLQMNSLRAEDTAVYYCTRHDRGGLYWGQGTMVTVSS VL: DIVMTQSPLSLPVTPGEPASISCRSSKSLLHSNGITYVYWYLQKPGQSPQLLIYRMSNRASGVPDRFSGSGSGTDFTLKISRVEAEDVGVYHCGQLLENPYTFGQGTKLEIK
0.00644	P1AE5751 (antibody, V domains shown) VH: EVQLVESGGGVVQPGRSLRLSCAASGFSFSNYGMAWVRQAPGKGLEWVASISTGGGNTYYADSVKGRFTISRDNAKNTLYLQMNSLRAEDTAVYYCTRHDRGGLYWGQGTMVTVSS VL: DIVMTQSPLSLPVTPGEPASISCRSSKSLLHSNGITYVYWYLQKPGKSPQVLIYRMSNLASGVPDRFSGSGSGTDFTLKISRVEAEDVGVYHCGQLLENPYTFGQGTKLEIK
0.00896	P1AE5740 (antibody, V domains shown) VH: EVQLVESGGGVVQPGRSLRLSCAASGFSFSNYGMAWVRQAPGKGLEWVASISTGGGNTYYRDSVKGRFTISRDNAKNTLYLQMNSLRAEDTAVYYCTRHDRGGLYWGQGTMVTVSS VL: DIVMTQSPLSLPVTPGEPASISCRSSKSLLHSNGITYVYWYLQKPGKSPQVLIYRMSNLASGVPDRFSGSGSGTDFTLKISRVEAEDVGVYHCGQLLENPYTFGQGTKLEIK
0.145	P1AE5757 (antibody, V domains shown) VH: EVQLVESGGGLVQPGGSLRLSCAASGFSFSNYGMAWVRQAPGKGLEWVASISTGGGNTYYRDSVKGRFTISRDNAKNTLYLQMNSLRAEDTAVYYCTRHDRGGLYWGQGTMVTVSS VL: DIVMTQSPLSLPVTPGEPASISCRSSKSLLHSNGITYVYWYLQKPGQSPQLLIYRMSNRASGVPDRFSGSGSGTDFTLKISRVEAEDVGVYHCGQLLENPYTFGQGTKLEIK
0.0415	P1AE5734 (antibody, V domains shown) VH: QVQLVESGGGVVQPGRSLRLSCAASGFSFSNYGMAWVRQAPGKGLEWVASISTGGGNTYYRDSVKGRFTISRDNSKNTLYLQMNSLRAEDTAVYYCTRHDRGGLYWGQGTMVTVSS VL: DIVMTQSPLSLPVTPGEPASISCRSSKSLLHSNGITYVYWYLQKPGQSPQVLIYRMSNLASGVPDRFSGSGSGTDFTLKISRVEAEDVGVYHCGQLLENPYTFGQGTKLEIK
0.00162	P1AE5745 (antibody, V domains shown) VH: QVQLVESGGGVVQPGRSLRLSCAASGFSFSNYGMAWVRQAPGKGLEWVASISTGGGNTYYADSVKGRFTISRDNSKNTLYLQMNSLRAEDTAVYYCTRHDRGGLYWGQGTMVTVSS VL: DIVMTQSPLSLPVTPGEPASISCRSSKSLLHSNGITYVYWYLQKPGKSPQVLIYRMSNLASGVPDRFSGSGSGTDFTLKISRVEAEDVGVYHCGQLLENPYTFGQGTKLEIK
0.152	P1AE5755 (antibody, V domains shown) VH: EVQLVESGGGLVQPGGSLRLSCAASGFSFSNYGMAWVRQAPGKGLEWVASISTGGGNTYYRDSVKGRFTISRDNAKNTLYLQMNSLRAEDTAVYYCTRHDRGGLYWGQGTMVTVSS VL: DIVMTQSPLSLPVTPGEPASISCRSSKSLLHSNGITYVYWYLQKPGQSPQVLIYRMSNLASGVPDRFSGSGSGTDFTLKISRVEAEDVGVYHCGQLLENPYTFGQGTKLEIK
0.0206	P1AE5750 (antibody, V domains shown) VH: EVQLVESGGGVVQPGRSLRLSCAASGFSFSNYGMAWVRQAPGKGLEWVASISTGGGNTYYADSVKGRFTISRDNAKNTLYLQMNSLRAEDTAVYYCTRHDRGGLYWGQGTMVTVSS VL: DIVMTQSPLSLPVTPGEPASISCRSSKSLLHSNGITYVYWYLQKPGQSPQVLIYRMSNLASGVPDRFSGSGSGTDFTLKISRVEAEDVGVYHCGQLLENPYTFGQGTKLEIK
0.17	P1AE5756 (antibody, V domains shown) VH: EVQLVESGGGLVQPGGSLRLSCAASGFSFSNYGMAWVRQAPGKGLEWVASISTGGGNTYYRDSVKGRFTISRDNAKNTLYLQMNSLRAEDTAVYYCTRHDRGGLYWGQGTMVTVSS VL: DIVMTQSPLSLPVTPGEPASISCRSSKSLLHSNGITYVYWYLQKPGKSPQVLIYRMSNLASGVPDRFSGSGSGTDFTLKISRVEAEDVGVYHCGQLLENPYTFGQGTKLEIK
